Publication PMC12613623

Columns and labels:
[1] = target: T1, murine SIRT3 recombinant protein (mouse); experiment: SPR; SIRT3 immobilised on a carboxyl sensor chip; ATP5O diluted in running buffer and injected from low to high concentrations; kinetics analysed with Trace Drawer
T1 sequence (Q8R104 whole entry, looked up): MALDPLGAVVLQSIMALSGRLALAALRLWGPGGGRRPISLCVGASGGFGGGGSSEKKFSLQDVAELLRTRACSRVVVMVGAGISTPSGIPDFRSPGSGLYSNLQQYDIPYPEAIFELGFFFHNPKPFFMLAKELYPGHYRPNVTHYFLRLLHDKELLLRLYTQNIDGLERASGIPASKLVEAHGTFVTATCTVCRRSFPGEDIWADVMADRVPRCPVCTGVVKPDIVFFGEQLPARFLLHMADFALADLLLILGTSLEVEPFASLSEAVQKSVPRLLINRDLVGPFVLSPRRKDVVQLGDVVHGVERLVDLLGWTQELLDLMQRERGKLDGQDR

[2] = target: T1, murine SIRT3 recombinant protein (mouse); experiment: ITC; Nano ITC (TA Instruments); ATP5O titrated into a SIRT3-containing solution at 25 °C; NanoAnalyze

- Kd [1]: 0.0653 nM
- koff [1]: 5.54e-08 s⁻¹
- kon [1]: 850 M⁻¹ s⁻¹
- Kd [2]: 1310 nM
B1: murine ATP5O recombinant protein (natural protein)
chain: FAKLVRPPVQVYGIEGRYATALYSAASKEKKLDQVEKELLRVGQLLKDPKVSLAVLNPYIKRTVKVKSLNDITKREKFSPLTANLMNLLAENGRLGNTQGIISAFSTIMSVHRGEVPCTVTTASPLDDAVLSELKTVLKSFLSPNQILKLEIKTDPSIMGGMIVRIGEKYVDMSAKSKIQKLSKAMREML
